{
  "source": "paper PMC7554302",
  "about": "“The Reversible Non-covalent Aggregation Into Fibers of PGLa and Magainin 2 Preserves Their Antimicrobial Activity and Synergism” (Frontiers in Cellular and Infection Microbiology, 2020)",
  "proteins": {"B1": {"name": "magainin 2a (peptide)", "peptide": "GIGKFLHSAKKFGKAFVGEIMNS-NH2", "notes": "magainin 2, antimicrobial peptide of Xenopus laevis skin secretions, cut from the magainins precursor; Forms fibrils (many copies); source: synthetic peptide (solid-phase synthesis, Fmoc chemistry; reverse phase HPLC purified)"}},
  "molecular_target": "the molecule itself",
  "test": "transmission electron microscopy + FTIR; negative-stain TEM of the samples fibrillated in Mueller-Hinton medium; FTIR of fibril pellets prepared in 50 mM phosphate buffer pH 7.4",
  "note": "Where no end group is shown, it is not given here.",
  "data": [
    {"protein": "B1", "values": [
      {"measurement": "binding result", "value": "binds"}
    ]}
  ]
}
